Test results: publication PMC7714896 (Signal Transduction and Targeted Therapy, 2020)

Target: T1, receptor-binding domain (RBD) of SARS-CoV-2 spike protein (SARS-CoV-2, UniProt P0DTC2)
T1 construct: source: bought: GenScript
Experiment: SPR; BIAcore 3000; […], flow 15 μl/min, […]
Conditions: both partners purified

B1: recombinant human CD147 extracellular fragment (His-CD147) (domain or fragment)
chain: EPGTVFTTVEDLGSKILLTCSLNDSATEVTGHRWLKGGVVLKEDALPGQKTEFKVDSDDQWGEYSCVFLPEPMGTANIQLHGPPRVKAVKSSEHINEGETAMLVCKSESVPPVTDWAWYKITDSEDKALMNGSESRFFVSSSQGRSELHIENLNMEADPGQYRCNGTSSKGSDQAIITLRVRSHLAAL
With B1 as the binder, how does the Kd read?
The Kd was 185 nM.
